{"source": "patent US20240067716A1", "about": "“IONIC LIQUID FORMULATIONS FOR TREATING INFLAMMATORY AND AUTOIMMUNE DISEASES” (i2O Therapeutics, Inc., priority 2021, published 2024)", "assay": "Local delivery of infliximab to small intestinal tissue after intrajejunal or intravenous dosing, LC-MS/MS", "type": "in vivo, Wistar rats", "settings": "rat, 5 h", "text": "Adult non-diabetic male Wistar rats were fasted overnight but given free access to water and subsequently dosed via intrajejunal injection (IJ) with infliximab and one of various choline-based ionic liquids, dosed via IJ with infliximab and saline, or dosed via intravenous injection (IV) with infliximab and saline.", "data": [{"substance": "infliximab", "values": [{"measurement": "% of the injected infliximab dose in the local small intestinal tissue", "setting": "intrajejunal injection (IJ)", "result": 0.06, "unit": "%"}, {"measurement": "% of the injected antibody dose in the small intestinal tissue", "setting": "intravenous injection (IV), in saline", "result": 0.95, "unit": "%"}]}]}
